Experimental data published in article PMC5014551 (2016).

B1: Bol1-Strep [S. cerevisiae] / Aco2 [S. cerevisiae (endogenous in yeast mitochondria)] (parent complex)
chain 1: MFKRAMSTDGPVARTILKRLECGFPDYKNFAFGLYNDSHKHKGHAGVQGNVSAETHFRIEMVSKKFEGLKLPQRHRMVYSLLQDEMAQANGIHALQLSLKTPQEYESKAK
chain 2: ATHANMFPSVSKNFQTKVPPYAKLLTNLDKIKQITNNAPLTLAEKILYSHLCDPEESITSSDLSTIRGNKYLKLNPDRVAMQDASAQMALLQFMTTGLNQTSVPASIHCDHLIVGKDGETKDLPSSIATNQEVFDFLESCAKRYGIQFWGPGSGIIHQIVLENFSAPGLMMLGTDSHTPNAGGLGAIAIGVGGADAVDALTGTPWELKAPKILGVKLTGKLNGWSTPKDVITKLAGLLTVRGGTGYIVEYFGEGVSTLSCTGMATICNMGAEIGATTSTFPYQEAHKRYLQATNRAEVAEAADVALNKFNFLRADKDAQYDKVIEIDLSAIEPHVNGPFTPDLSTPISQYAEKSLKENWPQKVSAGLIGSCTNSSYQDMSRVVDLVKQASKAGLKPRIPFFVTPGSEQIRATLERDGIIDIFQENGAKVLANACGPCIGQWNREDVSKTSKETNTIFTSFNRNFRARNDGNRNTMNFLTSPEIVTAMSYSGDAQFNPLTDSIKLPNGKDFKFQPPKGDELPKRGFEHGRDKFYPEMDPKPDSNVEIKVDPNSDRLQLLEPFKPWNGKELKTNVLLKVEGKCTTDHISAAGVWLKYKGHLENISYNTLIGAQNKETGEVNKAYDLDGTEYDIPGLMMKWKSDGRPWTVIAEHNYGEGSAREHAALSPRFLGGEILLVKSFARIHETNLKKQGVLPLTFANESDYDKISSGDVLETLNLVDMIAKDGNNGGEIDVKITKPNGESFTIKAKHTMSKDQIDFFKAGSAINYIGNIRRNE
B2: Bol1-Strep [S. cerevisiae] / Aco1 [S. cerevisiae (endogenous in yeast mitochondria)] (parent complex)
chain 1: B1 chain 1
chain 2: ATVSNLTRDSKVNQNLLEDHSFINYKQNVETLDIVRKRLNRPFTYAEKILYGHLDDPHGQDIQRGVSYLKLRPDRVACQDATAQMAILQFMSAGLPQVAKPVTVHCDHLIQAQVGGEKDLKRAIDLNKEVYDFLASATAKYNMGFWKPGSGIIHQIVLENYAFPGALIIGTDSHTPNAGGLGQLAIGVGGADAVDVMAGRPWELKAPKILGVKLTGKMNGWTSPKDIILKLAGITTVKGGTGKIVEYFGDGVDTFSATGMGTICNMGAEIGATTSVFPFNKSMIEYLEATGRGKIADFAKLYHKDLLSADKDAEYDEVVEIDLNTLEPYINGPFTPDLATPVSKMKEVAVANNWPLDVRVGLIGSCTNSSYEDMSRSASIVKDAAAHGLKSKTIFTVTPGSEQIRATIERDGQLETFKEFGGIVLANACGPCIGQWDRRDIKKGDKNTIVSSYNRNFTSRNDGNPQTHAFVASPELVTAFAIAGDLRFNPLTDKLKDKDGNEFMLKPPHGDGLPQRGYDAGENTYQAPPADRSTVEVKVSPTSDRLQLLKPFKPWDGKDAKDMPILIKAVGKTTTDHISMAGPWLKYRGHLENISNNYMIGAINAENKKANCVKNVYTGEYKGVPDTARDYRDQGIKWVVIGDENFGEGSSREHAALEPRFLGGFAIITKSFARIHETNLKKQGLLPLNFKNPADYDKINPDDRIDILGLAELAPGKPVTMRVHPKNGKPWDAVLTHTFNDEQIEWFKYGSALNKIKADEKK
B3: Bol1-Strep [S. cerevisiae] / Lip5 [S. cerevisiae (endogenous in yeast mitochondria)] (parent complex)
chain 1: B1 chain 1
chain 2: SSTIRCGTSATRPIRSNALNTDSDNASVRVPVGNSTEVENATSQLTGTSGKRRKGNRKRITEFKDALNLGPSFADFVSGKASKMILDPLEKARQNTEEAKKLPRWLKVPIPKGTNYHKLKGDVKELGLSTVCEEARCPNIGECWGGKDKSKATATIMLLGDTCTRGCRFCSVKTNRTPSKPDPMEPENTAEAIKRWGLGYVVLTTVDRDDLVDGGANHLAETVRKIKQKAPNTLVETLSGDFRGDLKMVDIMAQCGLDVYAHNLETVESLTPHVRDRRATYRQSLSVLERAKATVPSLITKTSIMLGLGETDEQITQTLKDLRNIQCDVVTFGQYMRPTKRHMKVVEYVKPEKFDYWKERALEMGFLYCASGPLVRSSYKAGEAFIENVLKKRNMK
B4: Bol1-Strep [S. cerevisiae] / Bio2 [S. cerevisiae (endogenous in yeast mitochondria)] (parent complex)
chain 1: B1 chain 1
chain 2: TKYATNAAVKSTTASSEASTLGALQYALSLDEPSHSWTKSQLKEIYHTPLLELTHAAQLQHRKWHDPTKVQLCTLMNIKSGGCSEDCKYCAQSSRNDTGLKAEKMVKVDEVIKEAEEAKRNGSTRFCLGAAWRDMKGRKSAMKRIQEMVTKVNDMGLETCVTLGMVDQDQAKQLKDAGLTAYNHNIDTSREHYSKVITTRTYDDRLQTIKNVQESGIKACTGGILGLGESEDDHIGFIYTLSNMSPHPESLPINRLVAIKGTPMAEELADPKSKKLQFDEILRTIATARIVMPKAIIRLAAGRYTMKETEQFVCFMAGCNSIFTGKKMLTTMCNGWDEDKAMLAKWGLQPMEAFKYDRS
B5: Bol1-Strep [S. cerevisiae] / Isa2 [S. cerevisiae] (parent complex)
chain 1: B1 chain 1
chain 2: MQAKLLFTRLNFRRPSTTLRQFPLTCFLFHSKAFYSDLVTKEPLITPKRIINKTPGLNLSISERASNRLAEIYRNSKENLRISVESGGCHGFQYNLTLEPATKPDIKNDVKDKEFSDDLDDDDSKDIIYVLPEDKGRVIIDSKSLNILNNTTLTYTNELIGSSFKIINGSLKSSCGCGSSFDIEN
B6: Bol3-Strep [S. cerevisiae] / dihydroxyacid dehydratase (Ilv3) [S. cerevisiae (endogenous in yeast mitochondria)] (parent complex)
chain 1: MKLPQTMLRSISVKHVRWPRILTGSKLWYSTQMAMTPEEKMITDKLQQELEPEVCKVQDVSGGCGSMFAINITSKKFNGLSLIKQHQLVNRILRDDISRWHGLQLTTKKSTGKGPASS
chain 2: not shown
B7: Bol1-Strep [S. cerevisiae] / dihydroxyacid dehydratase (Ilv3) [S. cerevisiae (endogenous in yeast mitochondria)] (parent complex)
chain 1: B1 chain 1
chain 2: not shown
B8: Bol1-Strep [S. cerevisiae] / Lys4 [S. cerevisiae (endogenous in yeast mitochondria)] (parent complex)
chain 1: B1 chain 1
chain 2: LKGQNLTEKIVQSYAVNLPEGKVVHSGDYVSIKPAHCMSHDNSWPVALKFMGLGATKIKNPSQIVTTLDHDIQNKSEKNLTKYKNIENFAKKHHIDHYPAGRGIGHQIMIEEGYAFPLNMTVASDSHSNTYGGLGSLGTPIVRTDAAAIWATGQTWWQIPPVAQVELKGQLPQGVSGKDIIVALCGLFNNDQVLNHAIEFTGDSLNALPIDHRLTIANMTTEWGALSGLFPVDKTLIDWYKNRLQKLGTNNHPRINPKTIRALEEKAKIPKADKDAHYAKKLIIDLATLTHYVSGPNSVKVSNTVQDLSQQDIKINKAYLVSCTNSRLSDLQSAADVVCPTGDLNKVNKVAPGVEFYVAAASSEIEADARKSGAWEKLLKAGCIPLPSGCGPCIGLGAGLLEPGEVGISATNRNFKGRMGSKDALAYLASPAVVAASAVLGKISSPAEVLSTSEIPFSGVKTEIIENPVVEEEVNAQTEAPKQSVEILEGFPREFSGELVLCDADNINTDGIYPGKYTYQDDVPKEKMAQVCMENYDAEFRTKVHPGDIVVSGFNFGTGSSREQAATALLAKGINLVVSGSFGNIFSRNSINNALLTLEIPALIKKLREKYQGAPKELTRRTGWFLKWDVADAKVVVTEGSLDGPVILEQKVGELGKNLQEIIVKGGLEGWVKSQL
B9: Bol1-Strep [S. cerevisiae] / Sdh2 [S. cerevisiae (endogenous in yeast mitochondria)] (parent complex)
chain 1: B1 chain 1
chain 2: TATTAAATHTPRLKTFKVYRWNPDEPSAKPHLQSYQVDLNDCGPMVLDALLKIKDEQDSTLTFRRSCREGICGSCAMNIGGRNTLACICKIDQNESKQLKIYPLPHMFIVKDLVPDLTNFYQQYKSIQPYLQRSSFPKDGTEVLQSIEDRKKLDGLYECILCACCSTSCPSYWWNQEQYLGPAVLMQAYRWLIDSRDQATKTRKAMLNNSMSLYRCHTIMNCTRTCPKGLNPGLAIAEIKKSLAFA

Variants of: B1
Experiment: Strep-tag affinity purification with MS proteomics (spectral counts); parent: 0; read off a plot

Row | screen value [%] | Variant
1 | ~0 | chain 1 H93C

Variants of: B2
Experiment: Strep-tag affinity purification with MS proteomics (spectral counts); parent: 3.5; read off a plot

Row | screen value [%] | Variant
2 | ~1.5 | chain 1 H93C

Variants of: B3
Experiment: Strep-tag affinity purification with MS proteomics (spectral counts); parent: 0; read off a plot

Row | screen value [%] | Variant
3 | ~0 | chain 1 H93C

Variants of: B4
Experiment: as above

Row | screen value [%] | Variant
4 | ~0 | chain 1 H93C

Variants of: B5
Experiment: as above

Row | screen value [%] | Variant
5 | ~0 | chain 1 H93C

Variants of: B6
Experiment: Strep-tag affinity purification with MS proteomics (spectral counts); parent: 16; read off a plot

Row | screen value [%] | Variant
6 | ~45 | chain 1 H101C

Variants of: B7
Experiment: Strep-tag affinity purification with MS proteomics (spectral counts); parent: 4; read off a plot

Row | screen value [%] | Variant
7 | ~0 | chain 1 H93C

Variants of: B8
Experiment: Strep-tag affinity purification with MS proteomics (spectral counts); parent: 0; read off a plot

Row | screen value [%] | Variant
8 | ~0 | chain 1 H93C

Variants of: B9
Experiment: as above

Row | screen value [%] | Variant
9 | ~0 | chain 1 H93C
